What is called stoichiometry N is the number of molecules, sites or subunits per partner or assembly.

The data set deals with the molecule itself. Put plainly: SEC.

B1: SymE (Escherichia coli MG1655), untagged after TEV cleavage of His6-TEV-SymE (natural protein, E. coli MG1655, UniProt P39394 1-113, looked up)
chain: MTDTHSIAQPFEAEVSPANNRHVTVGYASRYPDYSRIPAITLKGQWLEAAGFATGTAVDVKVMEGCIVLTAQPPAAEESELMQSLRQVCKLSARKQKQVQAFIGVIAGKQKVA
In the case of B1, the “stoichiometry N” value was ~4.

For the origin of these results see article PMC9018529 (Molecular microbiology, 2022).
